{"source": "paper PMC11430019", "about": "(bioRxiv, 2024)", "key": {"[1]": {"molecular_target": "HSV-2 gH ectodomain (gH_(ecto)) (HSV-2, UniProt P89445)", "sequence (P89445 19-803)": "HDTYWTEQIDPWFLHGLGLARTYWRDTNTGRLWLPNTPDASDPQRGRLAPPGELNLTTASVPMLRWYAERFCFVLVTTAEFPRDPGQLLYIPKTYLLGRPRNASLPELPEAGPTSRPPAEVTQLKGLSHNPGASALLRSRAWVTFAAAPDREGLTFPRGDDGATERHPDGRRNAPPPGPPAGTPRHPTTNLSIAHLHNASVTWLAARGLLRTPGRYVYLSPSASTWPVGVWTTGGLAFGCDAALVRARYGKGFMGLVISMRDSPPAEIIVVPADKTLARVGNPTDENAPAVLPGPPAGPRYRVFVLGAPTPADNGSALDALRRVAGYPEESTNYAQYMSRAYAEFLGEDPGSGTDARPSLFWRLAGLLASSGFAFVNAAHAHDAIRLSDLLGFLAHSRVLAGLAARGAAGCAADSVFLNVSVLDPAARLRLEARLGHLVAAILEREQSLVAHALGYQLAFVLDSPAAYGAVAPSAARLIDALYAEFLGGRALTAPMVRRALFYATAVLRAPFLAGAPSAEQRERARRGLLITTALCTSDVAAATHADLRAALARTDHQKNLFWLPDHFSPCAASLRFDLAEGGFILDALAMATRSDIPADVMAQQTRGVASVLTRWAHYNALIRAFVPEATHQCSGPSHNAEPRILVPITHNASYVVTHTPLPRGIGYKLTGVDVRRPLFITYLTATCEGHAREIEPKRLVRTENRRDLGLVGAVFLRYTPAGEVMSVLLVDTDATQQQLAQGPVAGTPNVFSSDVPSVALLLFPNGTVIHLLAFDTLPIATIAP", "test": "cryo-EM structure"}, "[2]": {"molecular_target": "HSV-2 gH ectodomain / gL heterodimeric complex (gH_(ecto)/gL) (HSV-2, UniProt P89445;P28278)", "sequence (P89445 19-803, chain 1 of 2)": "as the sequence (P89445 19-803) above", "sequence (P28278 17-224, chain 2 of 2)": "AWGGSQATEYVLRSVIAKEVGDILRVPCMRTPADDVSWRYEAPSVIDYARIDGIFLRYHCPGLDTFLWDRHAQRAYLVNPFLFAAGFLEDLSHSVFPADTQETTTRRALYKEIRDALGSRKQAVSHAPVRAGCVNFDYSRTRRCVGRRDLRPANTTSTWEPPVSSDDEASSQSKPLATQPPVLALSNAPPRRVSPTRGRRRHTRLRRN", "test": "cryo-EM structure"}}, "data": [{"binder": "CHL27 Fab (Fab, V domains shown) VH: QIQLVQSGPELKKPGETVKISCRASGYTFTDYSMHWVKQAPGKGLQWMGWIDTETGEPTYADDFKGRFAFSLETSAITAYLQINNLKNEDTATYFCARGLSPYWGHGTLVTVSA VL: NIVMTQSPKSMSMSVGERVTLSCKASENVGSYVSWYQQKPEQSPKLLIYGASIRHTGVPDRFAGSGSATDFTLTISSVQAEDLAAYHCGQTYSSPYTFGGGTKLEIK", "values": [{"measurement": "binding result", "setting": "[1]", "result": "binds"}, {"measurement": "binding result", "setting": "[2]", "result": "binds"}]}]}
